Test results as given in patent publication EP4223782A1 (dated 2023).

T1: TGFβR2(-1) frameshift variant (deletion of one adenine in the 10-adenine microsatellite) peptide on … (human)
T1 peptide: VALMSAMTTSSSQKN


Assays:
[1] = target: T1, TGFβR2(-1) frameshift variant (deletion …); test: IFNγ ELISA after 16 h; transduced human CD4+ T cells with BSM cells pulsed with decreasing amounts of peptide; lower bound of the printed range; full-length, on cells
[2] = target: TGFβR2(-1) peptide … presented on HLA-DRA/HLA-DRB1*04:01 (human); test: cell-based or functional assay
[3] = target: T1, TGFβR2(-1) frameshift variant (deletion …); test: IFNγ ELISA after 16 h; transduced human CD4+ T cells with BSM cells pulsed with decreasing amounts of peptide; upper bound of the printed range; full-length, on cells

EC50 of peptide [1] [nM]	lowest peptide concentration recognized (IFNy ELISA, BSM cells loaded with different concentrations of peptide) [2] [nM]	EC50 of peptide [3] [nM]	Binder
> 1	1	< 10	TCR1414_1 (TCR, V domains shown) Valpha: KQEVTQIPAALSVPEGENLVLNCSFTDSAIYNLQWFRQDPGKGLTSLLLIQSSQREQTSGRLNASLDKSSGRSTLYIAASQPGDSATYLCAVKSGAGSYQLTFGKGTKLSVIP Vbeta: NAGVMQNPRHLVRRRGQEARLRCSPMKGHSHVYWYRQLPEEGLKFMVYLQKENIIDESGMPKERFSAEFPKEGPSILRIQQVVRGDSAAYFCASSPFQETQYFGPGTRLLVL
> 1	1	< 10	TCR1414_2 (TCR, V domains shown) Valpha: GIQVEQSPPDLILQEGANSTLRCNFSDSVNNLQWFHQNPWGQLINLFYIPSGTKQNGRLSATTVATERYSLLYISSSQTTDSGVYFCAAPSGNTPLVFGKGTRLSVIA Vbeta: DVKVTQSSRYLVKRTGEKVFLECVQDMDHENMFWYRQDPGLGLRLIYFSYDVKMKEKGDIPEGYSVSREKKERFSLILESASTNQTSMYLCASRVSGANVLTFGAGSRLTVL
